Source: patent publication US20240425837A1 (Novo Nordisk, published 2024)
No end group written: not given here.

Assays:
Test in all cases: ELISA, biotinylated 12-mer peptide on streptavidin, 2 ug/mL FLAG-tagged VHH, anti-FLAG-HRP
[1] = target: T1, FX activation peptide 12-mer AQATSSSGEAPD (SEQ ID NO:695) (human)
T1 peptide: AQATSSSGEAPD-biotin
Procedure: (§1) To determine whether the binding epitope of the anti-FX VHH polypeptide designated “cmpd #1” are located inside the activation peptide (AP) of human FX (SEQ ID NO:2), an ELISA assay was setup. 41 unique 12-mer peptide fragments spanning the 52 residues of the activation peptide with one amino acid spacing were immobilized in microtiter plate wells followed by incubation with the VHH polypeptide to be tested, and detection of bound ligand was performed by addition of a secondary HRP-labelled antibody.
(§2) The peptides were C-terminally conjugated to biotin and 50 μL of 1 μg/mL peptide solution was used for immobilization in discrete wells of the microtiter plate which was pre-coated with 1 μg/mL streptavidin. Each well was washed with washing buffer (10 mM Tris, 150 mM NaCl, 2.5 mM CaCl₂, 0.05% Tween 20, pH 8.60) followed by addition of 50 μL of 2 μg/mL FLAG-tagged anti-FX VHH polypeptide or IgG antibody to be tested. After 1 hour non-bound VHH polypeptide was washed off using washing buffer.
(§3) Bound anti-FX activation peptide ligand was detected by first binding a HRP-labelled secondary antibody (for FLAG-tagged VHH polypeptide: Anti-FLAG mAb M2-Peroxidase (HRP) (Sigma Aldrich, US) for 1 hour, and then adding 100 μL TMB-1 ELISA substrate (Kem-En-Tec Diagnostics, Denmark).

[2] = target: T2, FX activation peptide 12-mer QTQPERGDNNLT (SEQ ID NO:732) (human)
T2 peptide: QTQPERGDNNLT-biotin
Procedure: as §1, §2, §3

[3] = target: T3, FX activation peptide 12-mer TSSSGEAPDSIT (SEQ ID NO:698) (human)
T3 peptide: TSSSGEAPDSIT-biotin
Procedure: as §1, §2, §3

[4] = target: T4, FX activation peptide 12-mer EAPDSITWKPYD (SEQ ID NO:703) (human)
T4 peptide: EAPDSITWKPYD-biotin
Procedure: as §1, §2, §3

[5] = target: T5, FX activation peptide 12-mer PDSITWKPYDAA (SEQ ID NO:705) (human)
T5 peptide: PDSITWKPYDAA-biotin
Procedure: as §1, §2, §3

[6] = target: T6, FX activation peptide 12-mer ITWKPYDAADLD (SEQ ID NO:708) (human)
T6 peptide: ITWKPYDAADLD-biotin
Procedure: as §1, §2, §3

[7] = target: T7, FX activation peptide 12-mer PTENPFDLLDFN (SEQ ID NO:720) (human)
T7 peptide: PTENPFDLLDFN-biotin
Procedure: as §1, §2, §3

[8] = target: T8, FX activation peptide 12-mer FNQTQPERGDNN (SEQ ID NO:730) (human)
T8 peptide: FNQTQPERGDNN-biotin
Procedure: as §1, §2, §3

[9] = target: T9, FX activation peptide 12-mer QATSSSGEAPDS (SEQ ID NO:696) (human)
T9 peptide: QATSSSGEAPDS-biotin
Procedure: as §1, §2, §3

[10] = target: T10, FX activation peptide 12-mer ADLDPTENPFDL (SEQ ID NO:716) (human)
T10 peptide: ADLDPTENPFDL-biotin
Procedure: as §1, §2, §3

[11] = target: T11, FX activation peptide 12-mer YDAADLDPTENP (SEQ ID NO:713) (human)
T11 peptide: YDAADLDPTENP-biotin
Procedure: as §1, §2, §3

[12] = target: T12, FX activation peptide 12-mer TQPERGDNNLTR (SEQ ID NO:733) (human)
T12 peptide: TQPERGDNNLTR-biotin
Procedure: as §1, §2, §3

[13] = target: T13, FX activation peptide 12-mer GEAPDSITWKPY (SEQ ID NO:702) (human)
T13 peptide: GEAPDSITWKPY-biotin
Procedure: as §1, §2, §3

[14] = target: T14, FX activation peptide 12-mer DSITWKPYDAAD (SEQ ID NO:706) (human)
T14 peptide: DSITWKPYDAAD-biotin
Procedure: as §1, §2, §3

[15] = target: T15, FX activation peptide 12-mer WKPYDAADLDPT (SEQ ID NO:710) (human)
T15 peptide: WKPYDAADLDPT-biotin
Procedure: as §1, §2, §3

[16] = target: T16, FX activation peptide 12-mer ENPFDLLDFNQT (SEQ ID NO:722) (human)
T16 peptide: ENPFDLLDFNQT-biotin
Procedure: as §1, §2, §3

[17] = target: T17, FX activation peptide 12-mer APDSITWKPYDA (SEQ ID NO:704) (human)
T17 peptide: APDSITWKPYDA-biotin
Procedure: as §1, §2, §3

[18] = target: T18, FX activation peptide 12-mer VAQATSSSGEAP (SEQ ID NO:694) (human)
T18 peptide: VAQATSSSGEAP-biotin
Procedure: as §1, §2, §3

[19] = target: T19, FX activation peptide 12-mer … (SEQ ID NO:727) (human)
T19 sequence (peptide, C-terminally conjugated to biotin): LLDFNQTQPERG

- ELISA signal normalized relative to the background signal [1]: 0.97 fold of background
- ELISA signal normalized relative to the background signal [3]: 0.77 fold of background
- ELISA signal normalized relative to the background signal [4]: 0.97 fold of background
- ELISA signal normalized relative to the background signal [5]: 1.05 fold of background
- ELISA signal normalized relative to the background signal [6]: 1.1 fold of background
- ELISA signal normalized relative to the background signal [7]: 4.58 fold of background
- ELISA signal normalized relative to the background signal [8]: 1 fold of background
- ELISA signal normalized relative to the background signal [9]: 0.96 fold of background
- ELISA signal normalized relative to the background signal [10]: 0.91 fold of background
- ELISA signal normalized relative to the background signal [11]: 0.87 fold of background
- ELISA signal normalized relative to the background signal [12]: 1.05 fold of background
- ELISA signal normalized relative to the background signal [13]: 0.93 fold of background
- ELISA signal normalized relative to the background signal [14]: 1.08 fold of background
- ELISA signal normalized relative to the background signal [15]: 0.89 fold of background
- ELISA signal normalized relative to the background signal [16]: 4 fold of background
- ELISA signal normalized relative to the background signal [17]: 1.06 fold of background
- ELISA signal normalized relative to the background signal [18]: 1.02 fold of background
- ELISA signal normalized relative to the background signal (fold of background) [19]: 1.88
B1: Cmpd #1 (monovalent anti-FX VHH polypeptide, VHH-1.1) (VHH)
VHH: EVQLVESGGGLVQPGGSLRLSCAASGSIGAFDAMGWYRQAPGKQRELVAGIMVSRGNTNYTDSVKGRFTISRDNAKNTVYLQMNSLKPEDTAVYYCKAVKRPGPGYLEVWGQGTLVTVSS
notes: no protractor; FLAG-tagged in the peptide ELISA
- ELISA signal normalized relative to the background signal [2]: 0.88 fold of background
